Positions count from the first letter of the chain named.
B1: Antibody A (antibody, V domains shown)
VH: QVQLQESGPGLVKPSETLSLTCTVSGGSISSYIWSWIRQPAGKGLEWIGRIYASGNTNYNPSLKSRVTMSVDTSKNQFSLKLSSMTAADTAVYYCARDYRVAGTYYYYYGLDVWGQGTTVTVSS
VL: QSALTQPASVSGSPGQSITISCTGTSSDVGVYDYVSWYQQHPGKAPKLMIYEVSNRPSGVSNRFSGSKSGNTASLTISGLQTEDEADYYCSSYTSRSTWVFGGGTKLTVL
notes: Human antibody (XenoMouse); also called mAb A; anti-hCD30L A
B2: Antibody E (antibody, V domains shown)
VH: QVQLQESGPRLVKPSETLSLTCTVSGGSITNNYWSWIRQPAGKGLEWIGRVYSSGLTNYKPSLKSRVTMSVDTSKNQFSLRLNSVTAADTAVYYCARERATVTTRYHYDGMDVWGQGTSVTVSS
VL: QSALTQPASVSGSPGQSITISCTGSSSDIGTYNYVSWYQQYPGKAPELMIYEVNNRPSGVSDRFSGSTSGNTASLTISGLQANDEADYYCSSYSSSSTWVFGGGTKLTVL
notes: also called mAb E
B3: Antibody F (antibody, V domains shown)
VH: QVQLQESGPGLVKPSETLSLTCTVSGGSISSYYWSWIRQPAGKGLEWIGRIFASGSTNYNPSLRSRVTMSRDTSKNQFSLKLSSVTAADTAVYYCAKERVGVQDYYHYSGMDVWGQGTTVTVSS
VL: B1 VL with V31L, D33N, H41Q, N55K, K68T, T82A, E83D, Y89S, R96S
notes: also called mAb F
B4: Antibody D (antibody, V domains shown)
VH: QVQLQESGPGLVKPSETLSLTCTVSGGSISSYSWSWIRQPAGKGLEWIGRTSTSGRNNYNPSLKSRVTMSVDTSKNQFSLKLNSVTAADTAVYYCARDFTIAARRYYYYGMDVWGQGTTVTVSS
VL: B1 VL with V29I, V31L, D33N, M49I, S54I, K68E, T82A, D87N, R96S
notes: also called mAb D
B5: Antibody B (antibody, V domains shown)
VH: QVQLQESGPGLVKPSETLSLTCTVSGGSISSYYWTWIRQPAGKGLEWIGRIYTSGITNYNPSLKSRVTMSVDTSKNQFSLKLSSVTAADTAVYYCARERVVGASRYYYYGVDVWGQGTTVTVSS
VL: B1 VL with V31L, D33N, G43D, Y51F, S54N, K68N, T82A, R96S
notes: also called mAb B
B6: Antibody C (antibody, V domains shown)
VH: B5 VH
VL: QSALTQPASVSGSPGQSITISCTGTSSDIGLYDYVSWYQQHPDRAPKLIIFEVNNRPSGVSYRFSGSNSGNTASLTISGLQAEDEADYYCSSYTSSSTWVFGGGTKLTVL
notes: also called mAb C

Target: T1, cyno CD30L LZ (cynomolgus monkey, UniProt A0A7N9CVX7 63-234)
T1 construct: extracellular domain; not shown: N-terminal isoleucine zipper motif
T1 sequence: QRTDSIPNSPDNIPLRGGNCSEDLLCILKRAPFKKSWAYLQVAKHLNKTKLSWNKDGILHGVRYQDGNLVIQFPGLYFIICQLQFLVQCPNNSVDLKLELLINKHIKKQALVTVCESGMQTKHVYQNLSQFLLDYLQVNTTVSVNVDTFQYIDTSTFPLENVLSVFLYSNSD
Assay: blocking of cyno CD30L LZ binding to K299 cells (CD30)
Description: Anti-CD30L IgG antibodies were titrated into culture diluent (RPMI-1640 medium+10% heat-inactivated fetal bovine serum) and placed into round-bottomed 96-well microtiter plates (Costar® 96 well plate (Corning; Acton, Mass.) to give a range of final concentrations from luglmi to 10 pg/ml. As a positive control, a mouse anti-human CD30L monoclonal antibody was prepared as described in U.S. Pat. No. 5,480,981. The final volume of diluent and CD30L IgG was 100 μl/well. To each well was then added 50 µl of recombinant human CD30L isoleucine zipper ([…]). The huCD30L LZ construct consists of the extracellular domain of human CD30L (see U.S. Pat. No. 5,480,981) linked at its N-terminus to an isoleucine zipper motif modified by replacing the leucine residues with isoleucine residues. The single cell assay was also used to determine cyno cross-reactivity using a cyno CD30L LZ instead of the huCD30L LZ. CynoCD30L LZ was prepared as described for the human LZ molecule.
The plates were incubated for 45 minutes at room temperature. To each well was added 50 μl of K299 cells (4×10⁵ cells/ml). The plates were then incubated for 24 hours at 37° C. 5% CO₂.
The amount of IL-8 in the cell supernatants was determined by sandwich ELISA, using a CDCL8/IL-8 ELISA DuoSet kit according to the manufacturer's instructions (R&D Systems, Minneapolis, Minn.). IL-8 levels were interpolated from the ELISA standard curve using DeltaSoft 3 version 2.2 software (DeltaSoft, Inc. Hillsborough, N.J.). At results were expressed as the mean It standard error of the mean (SEM) for 3 replicate cultures calculated by GraphPad PRISM software v. 4.01 (GraphPad Software Inc., San Diego, Calif.) as were the IC₅₀ values. The IC₅₀ value derived using the huCD30L LZ for Antibody A1 was 2700 pM. The results using the cynoCD30L LZ can be found in Table 5.

Point of comparison: B2, IC50 1.3 nM. Against it:
- B1 — within 1.5-fold, 1.4 nM
- B3 — 2.9-fold lower, 0.45 nM

Target: T2, FLAG-hCD30L-EC (N153Q) treated with PNGaseF (human)
T2 construct: also called FLAG-hCD30L-EC + PNGaseF
T2 chain: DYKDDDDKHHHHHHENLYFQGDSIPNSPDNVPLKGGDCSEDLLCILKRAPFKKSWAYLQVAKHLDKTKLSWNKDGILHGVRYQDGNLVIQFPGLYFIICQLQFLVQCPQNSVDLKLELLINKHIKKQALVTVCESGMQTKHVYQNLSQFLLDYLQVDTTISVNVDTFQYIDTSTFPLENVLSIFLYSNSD
Assay: HX-MS, 6 uM hCD30L with 6.6 uM mAb

B2: binds.
B3: binds.
B4: binds.

Target: T3, recombinant human CD30L isoleucine zipper (huCD30L LZ) (human, UniProt P32971 63-234)
T3 construct: also called huCD38L LZ; CD30L LZ Hu; not shown: N-terminal isoleucine zipper motif (leucine zipper with leucines replaced by isoleucines)
T3 sequence: T1 sequence with I13V, R16K, V142I, V165I
Assay: blocking of human CD30L LZ binding to K299 cells (CD30)

Point of comparison: B3, IC50 2 nM. Against it:
- B1 — within 1.5-fold, 1.5 nM
- B2 — within 1.5-fold, 2.1 nM
- B5 — within 1.5-fold, 2.5 nM
- B6 — within 1.5-fold, 1.9 nM

— patent US20220112295A1 (Novo Nordisk, published 2022)
